From publication PMC5998082, “Development of a Nanobody-based lateral flow assay to detect active Trypanosoma congolense infections” (Scientific Reports, 2018)

Target: the molecule itself
Experiment: SEC; analytical SEC of TcoPYK alone, ENRICH 650 10/30 column, BioRAD gel filtration standard

B1: recombinant T. congolense pyruvate kinase (enzyme, UniProt G0UYF4 1-499, looked up)
chain: MSQLQHNIGLSIFEPVAKHRANRIICTIGPSTQSVEALKGLMKSGMSVARMNFSHGSYEYHQTTINNVRAAAAELGLHIGIALDTKGPEIRTGLFKDGEATYAPGDTVLVTTDPAFEKIGTKEKFYVDYPQLPNVVRPGGLIYVDDGVLTLRVLSKEDDCTLKCHVNNHHRLTDRKGINLPGCEVDLPAVSEKDRKDLQFGVEQGVDMIFASFIRTADQVREVRAALGEKGKDTLIISKIENHQGVQNIDAIIEASDGIMVARGDLGVEIPAEKVVVAQMCIISKCNVAGKPVICATQMLESMTTNPRPTRAEVTDVANAVFNGADCVMLSGETAKGKYPNEVVQYMVRICIEAQSATHDSVMFNSIKNLQKIPMSPEEAVCSSAVSSAFEVQAKAILVLSNTGRSARLISKYRPNCPIICATTRLLTCRQLNVTRSVESVYYDVDAHGEDNDREKRVQLGVDWAKTKGYVSAGDVMVIVHADHSVKGYPNQTRLVRVR
notes: also called TcoPYK; source: E. coli BL21(DE3), purified (details in the Supplementary Information)
For B1, the “stoichiometry N” value was 4.
